This is an account of results in article PMC7948927.

Common to all, as to experiment: MST
In data set [1] the target is OGG1 I145M I145M (Homo sapiens) (UniProt O15527). Conditions: saturation not reached; N at position 11 of strand 1 = THF (tetrahydrofuran abasic site analog), opposite C; MST: 100 nM labeled duplex, 0.0185-3.28 uM protein, 10 mM Na phosphate pH 7.5, 7% glycerol; temperature not stated.
In data set [2] the target is OGG1 R161W R161W (Homo sapiens) (UniProt O15527). Conditions: saturation not reached; N at position 11 of strand 1 = THF (tetrahydrofuran abasic site analog), opposite C; MST: 100 nM labeled duplex, 0.0185-3.28 uM protein, 10 mM Na phosphate pH 7.5, 7% glycerol; temperature not stated.
In data set [3] the target is OGG1 S292N S292N (Homo sapiens) (UniProt O15527). Particulars: saturation not reached; N at position 11 of strand 1 = THF (tetrahydrofuran abasic site analog), opposite C; MST: 100 nM labeled duplex, 0.0185-3.28 uM protein, 10 mM Na phosphate pH 7.5, 7% glycerol; temperature not stated.
A further data set deals with OGG1 WT (Homo sapiens) (UniProt O15527). Conditions: N at position 11 of strand 1 = THF (tetrahydrofuran abasic site analog), opposite C; MST: 100 nM labeled duplex, 0.0185-3.28 uM protein, 10 mM Na phosphate pH 7.5, 7% glycerol; temperature not stated.
Sequence of OGG1 WT (Homo sapiens) (O15527 whole entry): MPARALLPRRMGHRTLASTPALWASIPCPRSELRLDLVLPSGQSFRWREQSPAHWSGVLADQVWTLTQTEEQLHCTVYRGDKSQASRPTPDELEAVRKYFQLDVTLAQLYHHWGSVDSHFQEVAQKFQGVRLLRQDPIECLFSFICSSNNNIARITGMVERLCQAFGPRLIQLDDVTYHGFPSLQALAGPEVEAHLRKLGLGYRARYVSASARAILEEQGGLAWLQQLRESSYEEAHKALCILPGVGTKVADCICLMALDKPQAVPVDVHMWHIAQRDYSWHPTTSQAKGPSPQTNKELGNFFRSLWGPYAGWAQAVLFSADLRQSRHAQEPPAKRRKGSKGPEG

Sequence of OGG1 R161W R161W (Homo sapiens) (O15527 whole entry R161W): as the sequence (O15527 whole entry) above, with R161W counted along it
Sequence of OGG1 S292N S292N (Homo sapiens) (O15527 whole entry S292N): as the sequence (O15527 whole entry) above, with S292N counted along it
Sequence of OGG1 I145M I145M (Homo sapiens) (O15527 whole entry I145M): as the sequence (O15527 whole entry) above, with I145M counted along it

Broadly, the Kd is a measure of binding affinity in units of concentration. Read a low Kd as tighter binding. For “CTCTCCCTTCNCTCCTTTCCTCT / AGAGGAAAGGAGCGAAGGGAGAG [THF:C duplex]”, the equilibrium dissociation constant (Kd) in data set [1] came out at 0.9 µM; in data set [2], 1.06 µM; in data set [3], 1.39 µM; in the data set with OGG1 WT (Homo sapiens), 0.14 µM.
